From PMC7917804

Molecular target: poly(A)-binding protein (PABP), P11940
Experiment: co-immunoprecipitation with anti-FLAG antibody, Western blot quantified with ImageJ
Conditions: chain shown with the change, HeLa cells, parent: est. 1.0, read off a plot

Chain of poly(A)-binding protein (PABP), P11940 (P11940 whole entry): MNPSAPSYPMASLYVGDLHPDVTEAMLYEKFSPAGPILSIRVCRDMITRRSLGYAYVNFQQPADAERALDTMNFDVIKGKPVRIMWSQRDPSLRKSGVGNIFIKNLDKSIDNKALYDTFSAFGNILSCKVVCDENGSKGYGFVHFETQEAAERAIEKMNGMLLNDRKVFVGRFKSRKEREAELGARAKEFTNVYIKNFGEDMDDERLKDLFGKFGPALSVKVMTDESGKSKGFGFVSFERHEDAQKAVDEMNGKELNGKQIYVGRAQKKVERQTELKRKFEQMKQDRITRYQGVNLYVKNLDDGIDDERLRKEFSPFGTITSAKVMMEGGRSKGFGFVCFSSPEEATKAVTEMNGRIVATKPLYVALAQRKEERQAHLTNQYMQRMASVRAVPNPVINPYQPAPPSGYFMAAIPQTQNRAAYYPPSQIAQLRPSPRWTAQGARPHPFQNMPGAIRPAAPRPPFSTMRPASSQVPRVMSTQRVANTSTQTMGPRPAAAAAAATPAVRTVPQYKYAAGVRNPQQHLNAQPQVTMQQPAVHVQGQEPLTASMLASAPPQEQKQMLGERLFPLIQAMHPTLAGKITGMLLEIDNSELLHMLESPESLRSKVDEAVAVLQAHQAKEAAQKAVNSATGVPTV

| response (three independent experiments) | response (two independent experiments) | Binder |
| --- | --- | --- |
| 0.54 | – | FLAG-HA-SBP (FHS)-tagged TNRC6A-SD-WT, Q8NDV7-2 S1616D; S1691D (protein) PLHQPAMKSFLDNVMPHTTPELQKGPSPINAFSNFPIGLNSNLNVNMDMNSIKEPQSRLRKWTTVDSISVNTSLDQNSSKHGAISSGFRLEESPFVPYDFMNSSTSPASPPGSIGDGWPRAKSPNGSSSVNWPPEFRPGEPWKGYPNIDPETDPYVTPGSVINNLSINTVREVDHLRDRNSGSSSSLNTTLPSTSAWSSIRASNYNVPLSSTAQSTSARNSDSKLTWSPGSVTNTSLAHELWKVPLPPKNITAPSRPPPGLTGQKPPLSTWDNSPLRIGGGWGNSDARYTPGSSWGESSSGRITNWLVLKNLTPQIDGSTLRTLCMQHGPLITFHLNLPHGNALVRYSSKEEVVKAQKSLHMCVLGNTTILAEFASEEEISRFFAQSQSLTPDPGWQSLGSSQSRLGSLDCSHSFSSRTDLNHWNGAGLSGTNCGDLHGTSLWGTPHYSTSLWGPPSSSDPRGISSPDPINAFLSVDHLGGGGESM |
| – | 0.89 | FLAG-HA-SBP (FHS)-tagged full-length TNRC6A, wild type, Q8NDV7-2 S1616D; S1691D (protein) MDADSASSSESERNITIMASGNTGGEKDGLRNSTGLGSQNKFVVGSSSNNVGHGSSTGPWGFSHGAIISTCQVSVDAPESKSESSNNRMNAWGTVSSSSNGGLNPSTLNSASNHGAWPVLENNGLALKGPVGSGSSGINIQCSTIGQMPNNQSINSKVSGGSTHGTWGSLQETCESEVSGTQKVSFSGQPQNITTEMTGPNNTTNFMTSSLPNSGSVQNNELPSSNTGAWRVSTMNHPQMQAPSGMNGTSLSHLSNGESKSGGSYGTTWGAYGSNYSGDKCSGPNGQANGDTVNATLMQPGVNGPMGTNFQVNTNKGGGVWESGAANSQSTSWGSGNGANSGGSRRGWGTPAQNTGTNLPSVEWNKLPSNQHSNDSANGNGKTFTNGWKSTEEEDQGSATSQTNEQSSVWAKTGGTVESDGSTESTGRLEEKGTGESQSRDRRKIDQHTLLQSIVNRTDLDPRVLSNSGWGQTPIKQNTAWDTETSPRGERKTDNGTEAWGSSATQTFNSGACIDKTSPNGNDTSSVSGWGDPKPALRWGDSKGSNCQGGWEDDSAATGMVKSNQWGNCKEEKAAWNDSQKNKQGWGDGQKSSQGWSVSASDNWGETSRNNHWGEANKKSSSGGSDSDRSVSGWNELGKTSSFTWGNNINPNNSSGWDESSKPTPSQGWGDPPKSNQSLGWGDSSKPVSSPDWNKQQDIVGSWGIPPATGKPPGTGWLGGPIPAPAKEEEPTGWEEPSPESIRRKMEIDDGTSAWGDPSKYNYKNVNMWNKNVPNGNSRSDQQAQVHQLLTPASAISNKEASSGSGWGEPWGEPSTPATTVDNGTSAWGKPIDSGPSWGEPIAAASSTSTWGSSSVGPQALSKSGPKSMQDGWCGDDMPLPGNRPTGWEEEEDVEIGMWNSNSSQELNSSLNWPPYTKKMSSKGLSGKKRRRERGMMKGGNKQEEAWINPFVKQFSNISFSRDSPEENVQSNKMDLSGGMLQDKRMEIDKHSLNIGDYNRTVGKGPGSRPQISKESSMERNPYFDKDGIVADESQNMQFMSSQSMKLPPSNSALPNQALGSIAGLGMQNLNSVRQNGNPSMFGVGNTAAQPRGMQQPPAQPLSSSQPNLRAQVPPPLLSPQVPVSLLKYAPNNGGLNPLFGPQQVAMLNQLSQLNQLSQISQLQRLLAQQQRAQSQRSVPSGNRPQQDQQGRPLSVQQQMMQQSRQLDPNLLVKQQTPPSQQQPLHQPAMKSFLDNVMPHTTPELQKGPSPINAFSNFPIGLNSNLNVNMDMNSIKEPQSRLRKWTTVDSISVNTSLDQNSSKHGAISSGFRLEESPFVPYDFMNSSTSPASPPGSIGDGWPRAKSPNGSSSVNWPPEFRPGEPWKGYPNIDPETDPYVTPGSVINNLSINTVREVDHLRDRNSGSSSSLNTTLPSTSAWSSIRASNYNVPLSSTAQSTSARNSDSKLTWSPGSVTNTSLAHELWKVPLPPKNITAPSRPPPGLTGQKPPLSTWDNSPLRIGGGWGNSDARYTPGSSWGESSSGRITNWLVLKNLTPQIDGSTLRTLCMQHGPLITFHLNLPHGNALVRYSSKEEVVKAQKSLHMCVLGNTTILAEFASEEEISRFFAQSQSLTPDPGWQSLGSSQSRLGSLDCSHSFSSRTDLNHWNGAGLSGTNCGDLHGTSLWGTPHYSTSLWGPPSSSDPRGISSPDPINAFLSVDHLGGGGESM |
| – | 1.4 | FLAG-HA-SBP (FHS)-tagged full-length TNRC6A, wild type, Q8NDV7-2 S1332D; S1346D (protein) MDADSASSSESERNITIMASGNTGGEKDGLRNSTGLGSQNKFVVGSSSNNVGHGSSTGPWGFSHGAIISTCQVSVDAPESKSESSNNRMNAWGTVSSSSNGGLNPSTLNSASNHGAWPVLENNGLALKGPVGSGSSGINIQCSTIGQMPNNQSINSKVSGGSTHGTWGSLQETCESEVSGTQKVSFSGQPQNITTEMTGPNNTTNFMTSSLPNSGSVQNNELPSSNTGAWRVSTMNHPQMQAPSGMNGTSLSHLSNGESKSGGSYGTTWGAYGSNYSGDKCSGPNGQANGDTVNATLMQPGVNGPMGTNFQVNTNKGGGVWESGAANSQSTSWGSGNGANSGGSRRGWGTPAQNTGTNLPSVEWNKLPSNQHSNDSANGNGKTFTNGWKSTEEEDQGSATSQTNEQSSVWAKTGGTVESDGSTESTGRLEEKGTGESQSRDRRKIDQHTLLQSIVNRTDLDPRVLSNSGWGQTPIKQNTAWDTETSPRGERKTDNGTEAWGSSATQTFNSGACIDKTSPNGNDTSSVSGWGDPKPALRWGDSKGSNCQGGWEDDSAATGMVKSNQWGNCKEEKAAWNDSQKNKQGWGDGQKSSQGWSVSASDNWGETSRNNHWGEANKKSSSGGSDSDRSVSGWNELGKTSSFTWGNNINPNNSSGWDESSKPTPSQGWGDPPKSNQSLGWGDSSKPVSSPDWNKQQDIVGSWGIPPATGKPPGTGWLGGPIPAPAKEEEPTGWEEPSPESIRRKMEIDDGTSAWGDPSKYNYKNVNMWNKNVPNGNSRSDQQAQVHQLLTPASAISNKEASSGSGWGEPWGEPSTPATTVDNGTSAWGKPIDSGPSWGEPIAAASSTSTWGSSSVGPQALSKSGPKSMQDGWCGDDMPLPGNRPTGWEEEEDVEIGMWNSNSSQELNSSLNWPPYTKKMSSKGLSGKKRRRERGMMKGGNKQEEAWINPFVKQFSNISFSRDSPEENVQSNKMDLSGGMLQDKRMEIDKHSLNIGDYNRTVGKGPGSRPQISKESSMERNPYFDKDGIVADESQNMQFMSSQSMKLPPSNSALPNQALGSIAGLGMQNLNSVRQNGNPSMFGVGNTAAQPRGMQQPPAQPLSSSQPNLRAQVPPPLLSPQVPVSLLKYAPNNGGLNPLFGPQQVAMLNQLSQLNQLSQISQLQRLLAQQQRAQSQRSVPSGNRPQQDQQGRPLSVQQQMMQQSRQLDPNLLVKQQTPPSQQQPLHQPAMKSFLDNVMPHTTPELQKGPSPINAFSNFPIGLNSNLNVNMDMNSIKEPQSRLRKWTTVDSISVNTSLDQNSSKHGAISSGFRLEESPFVPYDFMNSSTSPADPPGSIGDGWPRAKDPNGSSSVNWPPEFRPGEPWKGYPNIDPETDPYVTPGSVINNLSINTVREVDHLRDRNSGSSSSLNTTLPSTSAWSSIRASNYNVPLSSTAQSTSARNSDSKLTWSPGSVTNTSLAHELWKVPLPPKNITAPSRPPPGLTGQKPPLSTWDNSPLRIGGGWGNSDARYTPGSSWGESSSGRITNWLVLKNLTPQIDGSTLRTLCMQHGPLITFHLNLPHGNALVRYSSKEEVVKAQKSLHMCVLGNTTILAEFASEEEISRFFAQSQSLTPSPGWQSLGSSQSRLGSLDCSHSFSSRTDLNHWNGAGLSGTNCGDLHGTSLWGTPHYSTSLWGPPSSSDPRGISSPSPINAFLSVDHLGGGGESM |
